This note sets out measurements from paper PMC12661054, “The CIP2A-TOPBP1 axis facilitates mitotic DNA repair via MiDAS and MMEJ” (Nature Communications, 2025).

Square brackets hold non-standard residues; d marks the D form. Ends that are not written are not given here. fluorescein = fluorescein label on the N-terminus; pT = C[C@@H](OP(=O)(O)O)[C@H](N)C(=O)O

The target of the assay is T1, GST-TOPBP1(BRCT0-2 1-290) K250E (human, UniProt Q92547 1-290, K250E).
T1 construct: TOPBP1, human, residues 1-290 (BRCT0-2); purified as the wild type; no cleavage of GST described; also called BRCT 2 (K250E); source: E. coli BL21(DE3), purified (HiTrap GST, Superdex 200)
Nature of the assay: fluorescence polarisation; 100 nM fluorescein-labelled SLX4 peptide, increasing concentrations of TOPBP1 BRCT fragment; room temperature; 25 mM HEPES pH 7.5, 150 mM NaCl, 1 mM EDTA, 0.25 mM TCEP, 0.002% Tween 20; single site with non-specific component. To be noted: both partners purified.

B1: Flu-SLX4_pT1260 (peptide)
peptide: fluorescein-GYGTSWLVPA[pT]PLASRSR
modifications: also: phosphothreonine at Thr1260 (position 4 or 11)
notes: residues before the SLX4 stretch, not SLX4; SLX4, human, amino acids 1253-1267, pT1260; also called fluorescein tagged SLX4 pT1260-containing peptide; pThr1260 SLX4 peptide; source: synthetic peptide
Take B1: the binding result is reported as “binds”.
